Assay results reported in PMC9162472, “Improved furfural tolerance in Escherichia coli mediated by heterologous NADH-dependent benzyl alcohol dehydrogenases” (Biochemical Journal, 2022).

What was measured:
Test in all cases: purified protein
Settings in all cases: 0.2 mM NADH, 50 mM potassium phosphate pH 7.2, 200 mM NaCl, 37 °C, error is 95% CI, kcat m^-1 [sic]
[1] = substrate: CCCCCC=O; type: biochemical, Burkholderia ambifaria
[2] = substrate: O=Cc1ccco1; type: biochemical, Burkholderia ambifaria
[3] = substrate: O=Cc1ccc(CO)o1; type: biochemical, Burkholderia ambifaria
[4] = substrate: O=Cc1ccccc1; type: biochemical, Burkholderia ambifaria
[5] = substrate: O=Cc1ccco1; type: biochemical, Acinetobacter calcoaceticus
[6] = substrate: O=Cc1ccc(CO)o1; type: biochemical, Acinetobacter calcoaceticus
[7] = substrate: O=Cc1ccccc1; type: biochemical, Acinetobacter calcoaceticus
[8] = substrate: O=Cc1ccco1; type: biochemical, Pseudomonas putida
[9] = substrate: O=Cc1ccc(CO)o1; type: biochemical, Pseudomonas putida
[10] = substrate: O=Cc1ccccc1; type: biochemical, Pseudomonas putida

B1: BaBAD (Burkholderia ambifaria MC40-6) (protein)
chain: MYTENDTRAVTAAVARAAGAPFSIEPARIRAPRGDEVLVRVVATGLCHTDLIVRDQYYPVPLPAVLGHEGAGVVEAVGPNVKTLAAGDHVVLTYGACGHCASCAGGHGAYCRQFFALNFGGADADGQTALRDAAGEPLHDHFFAQSSFASYALARENNAIKVPKEAPLELLGPLGCGIQTGAGAVINSLAVRTGSSFASFGAGAVGMSAVMAARIAGATTIIAVDIVPSRLALALELGATHAINSKEVDVVDAIREITGGGVDYALESTGLPAVLSQGIDALGSRGTMGVVGAPKLGTKAEFDVNSLLLGGHTIRGIVEGDSVPQTFIPQLVQLHLQGRFPFDRLVKFYPLEQINQAAADSSSGITLKPILRLPH
- Km [1]: 672 ± 374 µM
- kcat [1]: 0.758 ± 0.163 s⁻¹
- kcat/Km [1]: 1170 ± 667 M⁻¹ s⁻¹
- Km [2]: 75.2 ± 62.2 µM
- kcat [2]: 0.575 ± 0.112 s⁻¹
- kcat/Km [2]: 8330 ± 6670 M⁻¹ s⁻¹
- Km [3]: 377 ± 242 µM
- kcat [3]: 1.09 ± 0.192 s⁻¹
- kcat/Km [3]: 3330 ± 1670 M⁻¹ s⁻¹
- Km [4]: 78.3 ± 30 µM
- kcat [4]: 0.865 ± 0.0785 s⁻¹
- kcat/Km [4]: 11700 ± 5000 M⁻¹ s⁻¹

B2: AcBAD (Acinetobacter calcoaceticus) (protein)
chain: MSELKDIIAAVTPCKGADFELQALKIRQPQGDEVLVKVVATGMCHTDLIVRDQYYPVPLPAVLGHEGSGIIEAIGPNVTELQVGDHVVLSYGYCGKCTQCNTGNPAYCSEFFGRNFSGADSEGNHALCTHDQGVVNDHFFAQSSFATYALSRENNTVKVTKDVPIELLGPLGCGIQTGAGACINALKVTPASSLVTWGAGAVGLSALLAAKVCGASIIIAVDIVESRLELAKQLGATHVINSKTQDPVAAIKEITDGGVNFALESTGRPEILKQGVDALGILGKIAVVGAPQLGTTAQFDVNDLLLGGKTILGVVEGSGSPKKFIPELVRLYQQGKFPFDQLVKFYAFDEINQAAIDSHKGITLKPIIKIA
- Km [5]: 359 ± 224 µM
- kcat [5]: 2.73 ± 0.467 s⁻¹
- kcat/Km [5]: 8330 ± 3330 M⁻¹ s⁻¹
- Km [6]: 294 ± 277 µM
- kcat [6]: 0.565 ± 0.146 s⁻¹
- kcat/Km [6]: 1670 ± 1670 M⁻¹ s⁻¹
- Km [7]: 412 ± 251 µM
- kcat [7]: 6.57 ± 1.34 s⁻¹
- kcat/Km [7]: 16700 ± 10000 M⁻¹ s⁻¹

B3: XylB (Pseudomonas putida) (protein)
chain: EIKAAIVRQKNGPFLLEHVALNEPAEDQVLVRLVATGLCHTDLVCRDQHYPVPLPMVFGHEGAGVVERVGSAVKKVQPGDHVVLTFYTCGSCDACLSGDPTSCANSFGPNFMGRSVTGECTIHDHQGAEVGASFFGQSSFATYALSYERNTVKVTKDVPLELLGPLGCGIQTGAGSVLNALNPPAGSSIAIFGAGAVGLSAVMAAVVAGCTKIIVVDVKENRLKLADELGATHVINAASSDPVEKIKEICAGGVPYVLETSGLPSVLQQAILSSAIGGEIGIVGAPPMGATIPVDINFLLFNRKLRGIVEGQSISDIFIPRLVELYRQGKFPFDKLLKFYSFDEINQAAEDSENGITLKPVLRIS
- Km [8]: 234 ± 153 µM
- kcat [8]: 2.45 ± 0.467 s⁻¹
- kcat/Km [8]: 10000 ± 6670 M⁻¹ s⁻¹
- Km [9]: 461 ± 52.1 µM
- kcat [9]: 1.16 ± 0.0453 s⁻¹
- kcat/Km [9]: 3330 ± 333 M⁻¹ s⁻¹
- Km [10]: 21.2 ± 16.2 µM
- kcat [10]: 0.192 ± 0.0343 s⁻¹
- kcat/Km [10]: 8330 ± 6670 M⁻¹ s⁻¹
